Measurements reported in patent publication US6124449.
pKd, pKi: −log10 of the molar value.

Tests used:
[1] = target: TGF-beta1 (hTGF-beta1) (Homo sapiens) (UniProt P01137); assay: cell_activity; settings: 2'-F C and U; MLEC assay; sequence contains N; column inferred
[2] = target: TGF-beta1 (hTGF-beta1) (Homo sapiens) (UniProt P01137); assay: filter

TGF-beta1 (hTGF-beta1) (Homo sapiens), sequence (P01137 279-390): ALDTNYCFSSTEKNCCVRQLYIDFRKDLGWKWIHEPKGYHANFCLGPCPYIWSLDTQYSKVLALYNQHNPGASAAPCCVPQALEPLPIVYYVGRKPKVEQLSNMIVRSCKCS

For “GGGAGGACGAUGCGGGACCNUUGUNUGCGAUUCAACUCGUAGGUCUUCUCACGUGCAGACGACUCGCCCGA [40-75]”, the pKi [1] was 8.65.
With “GGGAGGACGAUGCGGNNNNNNNNNNNNNNNNNNNNNNNNNNNNNNNNNNNNNNNNCAGACGACUCGCCCGA [random 40N7 RNA pool]” the pKd ([2]; 2'-F C and U (RNA transcript of template), random 2'-F RNA, DPBS, 1 mM MgCl2, 37 C) was 8.00.
With “GGGAGGACGAUGCGGUUAACCNUAAAUACGGCUUGANUUCUUCCGCAGACGACUCGCCCGA [30-19]” the pKd ([2]; 2'-F C and U, biphasic, Kd1 5.7±1.9 nM) was 9.46.
